Laboratory results as given in US20080305501A1.

Target: chimeric receptor comprising mouse TNFR1 external domain (residues 1-210 of SEQ ID NO:1) linked to the transmembrane and intracellular domains of mouse RANK (residues 210-625 of SEQ ID NO:2) (mouse)
Test: cell-based or functional assay

Chain of chimeric receptor comprising mouse TNFR1 external domain (residues 1-210 of SEQ ID NO:1) linked to the transmembrane and intracellular domains of mouse RANK (residues 210-625 of SEQ ID NO:2) (mouse) (chain, as listed by the source mutant): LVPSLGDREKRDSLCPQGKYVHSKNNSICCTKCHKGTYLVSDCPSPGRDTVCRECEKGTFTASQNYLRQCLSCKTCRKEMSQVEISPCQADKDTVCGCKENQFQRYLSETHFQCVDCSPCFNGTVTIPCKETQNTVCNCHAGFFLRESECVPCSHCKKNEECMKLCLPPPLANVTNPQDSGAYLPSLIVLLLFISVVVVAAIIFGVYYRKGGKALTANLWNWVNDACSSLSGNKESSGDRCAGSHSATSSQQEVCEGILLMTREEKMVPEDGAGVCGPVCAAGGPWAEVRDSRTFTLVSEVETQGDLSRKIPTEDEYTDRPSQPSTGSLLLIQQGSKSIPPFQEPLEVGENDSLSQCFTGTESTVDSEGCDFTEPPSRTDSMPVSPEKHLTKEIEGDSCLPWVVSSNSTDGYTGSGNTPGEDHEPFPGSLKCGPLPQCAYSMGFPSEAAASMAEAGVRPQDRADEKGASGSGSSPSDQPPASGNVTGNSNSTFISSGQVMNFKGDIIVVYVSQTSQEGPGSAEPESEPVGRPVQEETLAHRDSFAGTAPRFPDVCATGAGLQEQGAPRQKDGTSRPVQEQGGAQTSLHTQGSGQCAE

How did the osteoclast formation; lowest TNFα concentration still active turn out when “Recombinant mouse TNFα (410-TRNC-050, R&D Systems) (from UniProt P06804 80-235) (ligand)” was run?
Its osteoclast formation; lowest TNFα concentration still active is 1 ng/mL.
